Assay results: IntAct's records for PubMed 24561201

B1: ATP-sensitive inward rectifier potassium channel 10 (Homo sapiens), P78508 (parent)
chain: MTSVAKVYYSQTTQTESRPLMGPGIRRRRVLTKDGRSNVRMEHIADKRFLYLKDLWTTFIDMQWRYKLLLFSATFAGTWFLFGVVWYLVAVAHGDLLELDPPANHTPCVVQVHTLTGAFLFSLESQTTIGYGFRYISEECPLAIVLLIAQLVLTTILEIFITGTFLAKIARPKKRAETIRFSQHAVVASHNGKPCLMIRVANMRKSLLIGCQVTGKLLQTHQTKEGENIRLNQVNVTFQVDTASDSPFLILPLTFYHVVDETSPLKDLPLRSGEGDFELVLILSGTVESTSATCQVRTSYLPEEILWGYEFTPAISLSASGKYIADFSLFDQVVKVASPSGLRDSTVRYGDPEKLKLEESLREQAEKEGSALSVRISNV

Variants of: B1
Settings: with MAGI1, A0A8I3NPD4
Sequence of MAGI1, A0A8I3NPD4 (A0A8I3NPD4 entry or part of it): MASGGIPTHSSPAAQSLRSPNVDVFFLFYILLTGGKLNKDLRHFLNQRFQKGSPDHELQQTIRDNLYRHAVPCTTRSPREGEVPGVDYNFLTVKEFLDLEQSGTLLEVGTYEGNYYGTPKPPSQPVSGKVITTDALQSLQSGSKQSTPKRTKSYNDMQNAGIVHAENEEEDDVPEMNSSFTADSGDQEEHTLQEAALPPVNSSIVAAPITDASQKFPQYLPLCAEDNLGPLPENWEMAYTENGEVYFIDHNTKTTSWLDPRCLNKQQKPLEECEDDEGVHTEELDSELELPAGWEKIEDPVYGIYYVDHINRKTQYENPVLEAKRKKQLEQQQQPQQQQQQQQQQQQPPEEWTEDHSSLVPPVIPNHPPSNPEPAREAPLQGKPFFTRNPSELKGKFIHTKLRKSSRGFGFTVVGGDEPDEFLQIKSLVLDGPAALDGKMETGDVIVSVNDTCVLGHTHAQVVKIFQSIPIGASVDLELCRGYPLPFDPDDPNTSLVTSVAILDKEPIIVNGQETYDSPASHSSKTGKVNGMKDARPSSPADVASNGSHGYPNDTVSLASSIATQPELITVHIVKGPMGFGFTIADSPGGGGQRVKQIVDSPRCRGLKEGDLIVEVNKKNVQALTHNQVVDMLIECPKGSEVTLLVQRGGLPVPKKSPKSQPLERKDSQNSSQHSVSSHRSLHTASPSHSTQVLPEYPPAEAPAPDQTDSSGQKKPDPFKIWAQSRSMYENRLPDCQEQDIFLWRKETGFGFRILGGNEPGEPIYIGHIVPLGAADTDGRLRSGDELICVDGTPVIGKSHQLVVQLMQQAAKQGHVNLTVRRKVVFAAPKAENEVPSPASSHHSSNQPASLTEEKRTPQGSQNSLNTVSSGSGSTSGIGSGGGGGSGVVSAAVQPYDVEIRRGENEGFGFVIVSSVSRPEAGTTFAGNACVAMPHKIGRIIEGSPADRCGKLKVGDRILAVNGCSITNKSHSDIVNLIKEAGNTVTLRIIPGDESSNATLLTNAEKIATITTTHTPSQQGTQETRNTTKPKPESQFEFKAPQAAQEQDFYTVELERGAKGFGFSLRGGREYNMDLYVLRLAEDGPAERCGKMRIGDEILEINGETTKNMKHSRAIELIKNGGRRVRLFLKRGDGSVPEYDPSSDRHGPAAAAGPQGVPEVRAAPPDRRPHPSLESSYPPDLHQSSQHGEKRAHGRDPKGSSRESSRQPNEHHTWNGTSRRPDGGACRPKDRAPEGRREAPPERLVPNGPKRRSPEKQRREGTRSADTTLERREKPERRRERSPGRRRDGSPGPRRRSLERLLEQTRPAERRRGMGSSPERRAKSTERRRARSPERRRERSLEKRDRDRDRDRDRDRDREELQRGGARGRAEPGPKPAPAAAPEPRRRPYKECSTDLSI

effect of a mutation on the interaction | Variant
decreasing interaction | MTSVAKVYYSQTTQTESRPLMGPGIRRRRVLTKDGRSNVRMEHIADKRFLYLKDLWTTFIDMQWRYKLLLFSATFAGTWFLFGVVWYLVAVAHGDLLELDPPANHTPCVVQVHTLTGAFLFSLESQTTIGYGFRYISEECPLAIVLLIAQLVLTTILEIFITGTFLVKIARPKKRAETIRFSQHAVVASHNGKPCLMIRVANMRKSLLIGCQVTGKLLQTHQTKEGENIRLNQVNVTFQVDTASDSPFLILPLTFYHVVDETSPLKDLPLRSGEGDFELVLILSGTVESTSATCQVRTSYLPEEILWGYEFTPAISLSASGKYIADFSLFDQVVKVASPSGLRDSTVRYGDPEKLKLEESLREQAEKEGSALSVRISNV [A167V]
